The record followed here is patent US20230374072A1 (priority 2020, published 2023).

The series relates to TNF expression in HUVEC cell culture.

With “Gly-Asp-Cys-Pro-Pro-Trp-Cys-Gly-Ala-Arg-Cys-(XXX)-Cys [SEQ ID NO:1 scaffolding protein]”, the “toxic activity (activity of the toxin)” value was “does not present any type of toxic activity”.
